The text below walks through data of US20140056895 (published 2014).

Several values for one entry are separate records, joined by “and”; a condition that tells them apart may be missing. Equal values may be shown once. Read-outs that look alike come from different tables or passages of the source.

In general, Kd refers to the free concentration of one partner at which half of the binding sites on the other are occupied at equilibrium, for simple one-to-one binding.

One assay has as its target EGFR (human, UniProt P00533). The assay can be described thus: SPR.
Assay [1] addresses T1, IL4 (human, UniProt P05112).
T1 chain: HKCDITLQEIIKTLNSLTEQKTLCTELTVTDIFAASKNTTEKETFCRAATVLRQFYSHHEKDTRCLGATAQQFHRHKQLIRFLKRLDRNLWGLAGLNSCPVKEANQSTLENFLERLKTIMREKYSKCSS
The assay can be described thus: SPR. On the technique in general: In SPR one partner is held on a chip, and binding of the other changes the refractive index at the surface.

In assay [2] the target is T1, IL4. The assay can be described thus: SPR.
For assay [3], the target named is T1, IL4. The assay can be described thus: SPR.
Assay [4] deals with T1, IL4. The experiment in a line: SPR.
For assay [5], the target named is T1, IL4. The assay can be described thus: SPR.
Assay [6] has as its target T2, IL13 (human, UniProt P35225).
Assay [7] deals with T2, IL13. The assay can be described thus: SPR.
In assay [8] the target is T2, IL13. The assay can be described thus: SPR. This is another data set of the same source.
For assay [9], the target named is T2, IL13. The assay can be described thus: SPR. This is another data set of the same source.

T2 sequence (P35225 35-146): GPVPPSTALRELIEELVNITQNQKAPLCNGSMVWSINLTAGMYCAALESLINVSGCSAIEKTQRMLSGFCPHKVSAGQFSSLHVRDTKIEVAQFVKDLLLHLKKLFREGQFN

B1: CODV-Fab 413, EGFR arm (antibody)
chain 1: not shown
chain 2: EIVLTQSPGTLSVSPGERATLSCRASQSIGSSLHWYQQKPGQAPRLLIKYASQSLSGIPDRFSGSGSGTDFTLTISRLEPEDFAVYYCHQSSRLPHTFGQGTKVEIKGGGGGGGEIVMTQSPATLSLSPGERATLSCRASQSVSSYLAWYQQKPGQAPRLLIYDASNRATGIPARFSGSGSGTDFTLTISSLEPEDFAVYYCHQYGSTPLTFGGGTKAEIKGGGGGRTVAAPSVFIFPPSDEQLKSGTASVVCLLNNFYPREAKVQWKVDNALQSGNSQESVTEQDSKDSTYSLSSTLTLSKADYEKHKVYACEVTHQGLSSPVTKSFNRGEC
In turn, B1 came in with a dissociation constant (Kd) with EGFR of 42 nM.

B2: CODV-Ig 411 HC13/LC13, EGFR arm (antibody)
chain 1: not shown
chain 2: EIVLTQSPGTLSVSPGERATLSCRASQSIGSSLHWYQQKPGQAPRLLIKYASQSLSGIPDRFSGSGSGTDFTLTISRLEPEDFAVYYCHQSSRLPHTFGQGTKVEIKGGGGGGGEIVMTQSPATLSLSPGERATLSCRASQSVSSYLAWYQQKPGQAPRLLIYDASNRATGIPARFSGSGSGTDFTLTISSLEPEDFAVYYCHQYGSTPLTFGGGTKAEIKGGGGGRTVAAPSVFIFPPSDEQLKSGTASVVCLLNNFYPREAKVQWKVDNALQSGNSQESVTEQDSKDSTYSLSSTLTLSKADYEKHKVYACEVTHQGLSSPVTKSFNRGEC
B2: the Kd in the assay with EGFR came to 124 nM. This Kd lies about 3-fold higher than the previous one.

B3: CODV-Ig LC4:HC4, IL4 arm (antibody, V domains shown)
VH: QVQLQQSGPELVKPGASVKISCKASGYSFTSYWIHWIKQRPGQGLEWIGMIDPSDGETRLNQRFQGRATLTVDESTSTAYMQLRSPTSEDSAVYYCTRLKEYGNYDSFYFDVWGAGTLVTVSS
VL: DIQMTQSPASLSVSVGDTITLTCHASQNIDVWLSWFQQKPGNIPKLLIYKASNLHTGVPSRFSGSGSGTGFTLTISSLQPEDIATYYCQQAHSYPFTFGGGTKLEIKR
Turning to B3, binding with IL4 [1] was put at a Kd of 9.14 pM.

B4: CODV-Fab 421, IL4 arm (antibody, V domains shown)
VH: QVQLQQSGPELVKPGASVKISCKASGYSFTSYWIHWIKQRPGQGLEWIGMIDPSDGETRLNQRFQGRATLTVDESTSTAYMQLRSPTSEDSAVYYCTRLKEYGNYDSFYFDVWGAGTLVTVSS
VL: DIQMTQSPASLSVSVGDTITLTCHASQNIDVWLSWFQQKPGNIPKLLIYKASNLHTGVPSRFSGSGSGTGFTLTISSLQPEDIATYYCQQAHSYPFTFGGGTKLEIKR
For the molecule B4, binding with IL4 [2] was put at a Kd of 0.012 nM.

B5: CODV-Ig Fc cysteine variants (602, 603), IL4 arm (antibody, V domains shown)
VH: QVQLQQSGPELVKPGASVKISCKASGYSFTSYWIHWIKQRPGQGLEWIGMIDPSDGETRLNQRFQGRATLTVDESTSTAYMQLRSPTSEDSAVYYCTRLKEYGNYDSFYFDVWGAGTLVTVSS
VL: DIQMTQSPASLSVSVGDTITLTCHASQNIDVWLSWFQQKPGNIPKLLIYKASNLHTGVPSRFSGSGSGTGFTLTISSLQPEDIATYYCQQAHSYPFTFGGGTKLEIKR
Take B5: the Kd with IL4 [3] was 4 pM and 10 pM.

B6: parental anti-IL4 mAb (8D4 humanized) (antibody, V domains shown)
VH: QVQLQQSGPELVKPGASVKISCKASGYSFTSYWIHWIKQRPGQGLEWIGMIDPSDGETRLNQRFQGRATLTVDESTSTAYMQLRSPTSEDSAVYYCTRLKEYGNYDSFYFDVWGAGTLVTVSS
VL: DIQMTQSPASLSVSVGDTITLTCHASQNIDVWLSWFQQKPGNIPKLLIYKASNLHTGVPSRFSGSGSGTGFTLTISSLQPEDIATYYCQQAHSYPFTFGGGTKLEIKR
As for B6, in the assay with IL4 [1], the Kd stood at 7.83 pM. This counts as picomolar.

B7: CODV 706, IL4 arm (antibody, V domains shown)
VH: QVQLQQSGPELVKPGASVKISCKASGYSFTSYWIHWIKQRPGQCLEWIGMIDPSDGETRLNQRFQGRATLTVDESTSTAYMQLRSPTSEDSAVYYCTRLKEYGNYDSFYFDVWGAGTLVTVSS
VL: DIQMTQSPASLSVSVGDTITLTCHASQNIDVWLSWFQQKPGNIPKLLIYKASNLHTGVPSRFSGSGSGTGFTLTISSLQPEDIATYYCQQAHSYPFTFGCGTKLEIKR
With B7, in the assay with IL4 [4], the Kd came to 8 pM.

B8: CODV-Ig heavy-chain template (batches 201-270, 501-508, 704, 801), IL4 arm (antibody, V domains shown)
VH: QVQLQQSGPELVKPGASVKISCKASGYSFTSYWIHWIKQRPGQGLEWIGMIDPSDGETRLNQRFQGRATLTVDESTSTAYMQLRSPTSEDSAVYYCTRLKEYGNYDSFYFDVWGAGTLVTVSS
VL: DIQMTQSPASLSVSVGDTITLTCHASQNIDVWLSWFQQKPGNIPKLLIYKASNLHTGVPSRFSGSGSGTGFTLTISSLQPEDIATYYCQQAHSYPFTFGGGTKLEIKR
On to B8, for which the Kd with IL4 [4] and with IL4 [5] was 3 pM each time.

B9: CODV-Ig LC4:HC6, IL4 arm (antibody, V domains shown)
VH: QVQLQQSGPELVKPGASVKISCKASGYSFTSYWIHWIKQRPGQGLEWIGMIDPSDGETRLNQRFQGRATLTVDESTSTAYMQLRSPTSEDSAVYYCTRLKEYGNYDSFYFDVWGAGTLVTVSS
VL: DIQMTQSPASLSVSVGDTITLTCHASQNIDVWLSWFQQKPGNIPKLLIYKASNLHTGVPSRFSGSGSGTGFTLTISSLQPEDIATYYCQQAHSYPFTFGGGTKLEIKR
B9 had a Kd with IL4 [1] of 11.1 pM.

B10: Cross-over IL4(G4S)IL13CH1-Fc / IL13(G4S)IL4CL (antibody)
chain 1: not shown
chain 2: DIVLTQSPASLAVSLGQRATISCRASESVDSYGQSYMHWYQQKAGQPPKLLIYLASNLESGVPARFSGSGSRTDFTLTIDPVQAEDAATYYCQQNAEDSRTFGGGTKLEIKGGGGSDIQMTQSPASLSVSVGDTITLTCHASQNIDVWLSWFQQKPGNIPKLLIYKASNLHTGVPSRFSGSGSGTGFTLTISSLQPEDIATYYCQQAHSYPFTFGGGTKLEIKRTVAAPSVFIFPPSDEQLKSGTASVVCLLNNFYPREAKVQWKVDNALQSGNSQESVTEQDSKDSTYSLSSTLTLSKADYEKHKVYACEVTHQGLSSPVTKSFNRGEC
For B10, in the assay with IL13 [6], the binding result is recorded as “no binding”.

B11: Cross-over IL4(G4S2)IL13CH1-Fc / IL13(G4S)IL4CL (antibody)
chain 1: not shown
chain 2: DIVLTQSPASLAVSLGQRATISCRASESVDSYGQSYMHWYQQKAGQPPKLLIYLASNLESGVPARFSGSGSRTDFTLTIDPVQAEDAATYYCQQNAEDSRTFGGGTKLEIKGGGGSDIQMTQSPASLSVSVGDTITLTCHASQNIDVWLSWFQQKPGNIPKLLIYKASNLHTGVPSRFSGSGSGTGFTLTISSLQPEDIATYYCQQAHSYPFTFGGGTKLEIKRTVAAPSVFIFPPSDEQLKSGTASVVCLLNNFYPREAKVQWKVDNALQSGNSQESVTEQDSKDSTYSLSSTLTLSKADYEKHKVYACEVTHQGLSSPVTKSFNRGEC
B11: in the assay with IL13 [6], the binding result is reported as “no binding”.

B12: Cross-over IL4(G4S)IL13CH1-Fc / IL13(G4S2)IL4CL (antibody)
chain 1: not shown
chain 2: DIVLTQSPASLAVSLGQRATISCRASESVDSYGQSYMHWYQQKAGQPPKLLIYLASNLESGVPARFSGSGSRTDFTLTIDPVQAEDAATYYCQQNAEDSRTFGGGTKLEIKGGGGSGGGGSDIQMTQSPASLSVSVGDTITLTCHASQNIDVWLSWFQQKPGNIPKLLIYKASNLHTGVPSRFSGSGSGTGFTLTISSLQPEDIATYYCQQAHSYPFTFGGGTKLEIKRTVAAPSVFIFPPSDEQLKSGTASVVCLLNNFYPREAKVQWKVDNALQSGNSQESVTEQDSKDSTYSLSSTLTLSKADYEKHKVYACEVTHQGLSSPVTKSFNRGEC
For the molecule B12, the binding result in the assay with IL13 [6] is given as “no binding”.

B13: CODV-Ig Fc cysteine variants (602, 603), IL13 arm (antibody, V domains shown)
VH: EVQLKESGPGLVAPGGSLSITCTVSGFSLTDSSINWVRQPPGKGLEWLGMIWGDGRIDYADALKSRLSISKDSSKSQVFLEMTSLRTDDTATYYCARDGYFPYAMDFWGQGTSVTVSS
VL: DIVLTQSPASLAVSLGQRATISCRASESVDSYGQSYMHWYQQKAGQPPKLLIYLASNLESGVPARFSGSGSRTDFTLTIDPVQAEDAATYYCQQNAEDSRTFGGGTKLEIK
Regarding B13, in the assay with IL13 [7], the Kd is 0.064 nM and 0.1 nM.

B14: parental anti-IL13 mAb (B-B13 humanized) (antibody, V domains shown)
VH: EVQLKESGPGLVAPGGSLSITCTVSGFSLTDSSINWVRQPPGKGLEWLGMIWGDGRIDYADALKSRLSISKDSSKSQVFLEMTSLRTDDTATYYCARDGYFPYAMDFWGQGTSVTVSS
VL: DIVLTQSPASLAVSLGQRATISCRASESVDSYGQSYMHWYQQKAGQPPKLLIYLASNLESGVPARFSGSGSRTDFTLTIDPVQAEDAATYYCQQNAEDSRTFGGGTKLEIK
In the case of B14, the Kd in the assay with IL13 [8] came out at 0.0818 nM. This counts as picomolar.

B15: CODV-Ig LC4:HC6, IL13 arm (antibody, V domains shown)
VH: EVQLKESGPGLVAPGGSLSITCTVSGFSLTDSSINWVRQPPGKGLEWLGMIWGDGRIDYADALKSRLSISKDSSKSQVFLEMTSLRTDDTATYYCARDGYFPYAMDFWGQGTSVTVSS
VL: DIVLTQSPASLAVSLGQRATISCRASESVDSYGQSYMHWYQQKAGQPPKLLIYLASNLESGVPARFSGSGSRTDFTLTIDPVQAEDAATYYCQQNAEDSRTFGGGTKLEIK
Regarding B15, in the assay with IL13 [8], binding was characterised by a dissociation constant (Kd) of 0.118 nM.

B16: CODV-Ig LC4:HC4, IL13 arm (antibody, V domains shown)
VH: EVQLKESGPGLVAPGGSLSITCTVSGFSLTDSSINWVRQPPGKGLEWLGMIWGDGRIDYADALKSRLSISKDSSKSQVFLEMTSLRTDDTATYYCARDGYFPYAMDFWGQGTSVTVSS
VL: DIVLTQSPASLAVSLGQRATISCRASESVDSYGQSYMHWYQQKAGQPPKLLIYLASNLESGVPARFSGSGSRTDFTLTIDPVQAEDAATYYCQQNAEDSRTFGGGTKLEIK
Turning to B16, in the assay with IL13 [8], the affinity, expressed as Kd, was 0.0934 nM.

B17: CODV-Fab 421, IL13 arm (antibody, V domains shown)
VH: EVQLKESGPGLVAPGGSLSITCTVSGFSLTDSSINWVRQPPGKGLEWLGMIWGDGRIDYADALKSRLSISKDSSKSQVFLEMTSLRTDDTATYYCARDGYFPYAMDFWGQGTSVTVSS
VL: DIVLTQSPASLAVSLGQRATISCRASESVDSYGQSYMHWYQQKAGQPPKLLIYLASNLESGVPARFSGSGSRTDFTLTIDPVQAEDAATYYCQQNAEDSRTFGGGTKLEIK
B17 gave a Kd with IL13 [9] of 0.048 nM. This lies in the picomolar range.
